Reference: patent US20240034793A1 (Bristol-Myers Squibb, published 2024)

Experiments:
[1] = biological target: human PD-L1 (hPD-L1), Programmed Death Ligand-1, cell surface expressed (human) (UniProt Q9NZQ7); test: IHC histoscore (0-300), FFPE Mel sample T030668
[2] = biological target: human PD-L1 (hPD-L1), Programmed Death Ligand-1, cell surface expressed (human) (UniProt Q9NZQ7); test: IHC histoscore (0-300), FFPE Mel sample T980744
[3] = biological target: human PD-L1 (hPD-L1), Programmed Death Ligand-1, cell surface expressed (human) (UniProt Q9NZQ7); test: IHC histoscore (0-300), FFPE Mel sample 1168657B
[4] = biological target: human PD-L1 (hPD-L1), Programmed Death Ligand-1, cell surface expressed (human) (UniProt Q9NZQ7); test: IHC histoscore (0-300), FFPE RCC sample 1164619B
[5] = biological target: human PD-L1 (hPD-L1), Programmed Death Ligand-1, cell surface expressed (human) (UniProt Q9NZQ7); test: IHC histoscore (0-300), FFPE RCC sample 1167809B
[6] = biological target: human PD-L1 (hPD-L1), Programmed Death Ligand-1, cell surface expressed (human) (UniProt Q9NZQ7); test: IHC histoscore (0-300), FFPE NSCLC sample 1080790
[7] = biological target: human PD-L1 (hPD-L1), Programmed Death Ligand-1, cell surface expressed (human) (UniProt Q9NZQ7); test: IHC histoscore (0-300), FFPE NSCLC sample 1080754B
[8] = biological target: human PD-L1 (hPD-L1), Programmed Death Ligand-1, cell surface expressed (human) (UniProt Q9NZQ7); test: IHC histoscore (0-300), FFPE NSCLC sample 1080766B
[9] = biological target: human PD-L1 (hPD-L1), Programmed Death Ligand-1, cell surface expressed (human) (UniProt Q9NZQ7); test: IHC histoscore (0-300), FFPE NSCLC sample 1080993B
[10] = biological target: T1, human PD-L1 (hPD-L1), Programmed Death Ligand-1, cell surface expressed (human, UniProt Q9NZQ7 19-290); test: competition flow cytometry on ES-2 cells: unlabelled mAb titrated, then biotin-12A4 at 0.4 ug/ml, streptavidin-PE
T1 construct: whole, on cells; In the IHC assays the cells and tissues were formalin-fixed and paraffin-embedded (FFPE); also called membranous PD-L1
T1 sequence (Q9NZQ7 19-290): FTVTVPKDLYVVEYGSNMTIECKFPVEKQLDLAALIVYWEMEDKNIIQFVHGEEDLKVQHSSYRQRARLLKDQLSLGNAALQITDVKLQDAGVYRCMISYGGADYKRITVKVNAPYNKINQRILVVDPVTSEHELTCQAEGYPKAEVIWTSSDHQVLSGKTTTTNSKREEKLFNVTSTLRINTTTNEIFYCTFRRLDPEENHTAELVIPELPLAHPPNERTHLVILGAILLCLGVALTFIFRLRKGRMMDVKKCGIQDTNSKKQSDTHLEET
Description: Anti-PD-L1 HuMAbs 5F8, 12B7, 3G10, 1B12, 13G4, 10H10, 10A5 and 12A4, and a human IgG1 (huIgG1) isotype control Ab were serially diluted from 10 μg/ml and incubated with hPD-L1-expressing ES-2 ovarian carcinoma cells for 20 minutes at 4° C. Without washing, biotinylated-12A4 Ab was added to a final concentration of 0.4 μg/ml for an additional 20 minutes at 4° C.

Sequence of human PD-L1 (hPD-L1), Programmed Death Ligand-1, cell surface expressed (human) (Q9NZQ7 19-290): as above

murine anti-human PD-L1 mAb 5H1 (Dong et al., 2002) (antibody)
Histoscore Average [1]: 98
Histoscore Average [2]: 98
Histoscore Average [3]: 0
Histoscore Average [4]: 4
Histoscore Average [5]: 108
Histoscore Average [6]: 40
Histoscore Average [7]: 245
Histoscore Average [8]: 103
Histoscore Average [9]: 12

B1: anti-PD-L1 HuMAb 3G10 (antibody, V domains shown)
VH: QVQLVQSGAEVKKPGASVKVSCKASGYTFTDYGFSWVRQAPGQGLEWMGWITAYNGNTNYAQKLQGRVTMTTDTSTSTVYMELRSLRSDDTAVYYCARDYFYGMDVWGQGTTVTVSS
VL: EIVLTQSPATLSLSPGERATLSCRASQSVSSYLVWYQQKPGQAPRLLIYDASNRATGIPARFSGSGSGTDFTLTISSLEPEDFAVYYCQQRSNWPRTFGQGTKVEIK
notes: Human mAb; used unconjugated and FITC-conjugated
IC50 (read off the curve) [10]: ~1 nM
